Like-named read-outs stand apart in the source and are kept apart here. Some results are limits rather than exact numbers.

Our source for the IC50 values is US20080032921A1.

Experiment [1] has as its target purified HLA DRB1*1302 (human). As to the kind of experiment: competition with 125I-labelled peptide for purified HLA.
Experiment [2] concerns the target purified HLA DRB1*0101 (human). The experiment is described as above.
In experiment [3] the target is purified HLA DRB4*0101 (human). Described as above.
For experiment [4], the target named is purified HLA DRB1*0401 (human). The description is as above.
Experiment [5] deals with purified HLA DRB1*1501 (human). The description is as above.
Experiment [6] concerns the target HLA-DR DRB1*1501 (human). As to the kind of experiment: competition with 125I-labelled reference peptide on purified HLA-DR.
For experiment [7], the target named is HLA-DR DRB4*0101 (human). The description is as above.
Experiment [8] has as its target HLA-DR DRB1*0401 (human). The experiment is described as above.
For experiment [9], the target named is HLA-DR DRB1*0101 (human). The experiment is described as above.
Experiment [10] deals with HLA-DR DRB1*1302 (human). The description is as above.
For experiment [11], the target named is HLA-DR DRB1*1501 (human). Description: competition with 125I-labelled peptide, purified HLA.
Experiment [12] concerns the target HLA-DR DRB1*0405 (human). The experiment is described as above.
The target of experiment [13] is HLA-DR DRB1*0404 (human). The experiment is described as above.
Experiment [14] concerns the target HLA-DR DRB1*0301 (human). Described as above.
In the next experiment the target is HLA-DR DRB1*1101 (human). The experiment is described as above.
For experiment [15], the target named is HLA-DR DRB1*0401 (human). The description is as above.
Experiment [16] has as its target HLA-DR DRB1*0101 (human). Described as above.
For a further experiment, the target named is HLA-DR DRB1*0701 (human). The experiment is described as above.
Experiment [17] deals with HLA-DR DRB1*0301 (human). As to the kind of experiment: competition vs 125I-labeled peptide, purified HLA.
Experiment [18] has as its target HLA-DR DRB1*1501 (human). Description: competition vs 125I-labeled peptide, purified HLA.
Experiment [19] concerns the target HLA-DR DRB4*0101 (human). As to the kind of experiment: competition vs 125I-labeled peptide, purified HLA.
The target in experiment [20] is HLA-DR DRB1*0401 (human). Description: competition vs 125I-labeled peptide, purified HLA.
Experiment [21] addresses HLA-DR DRB1*1302 (human). Description: competition vs 125I-labeled peptide, purified HLA.
Experiment [22] deals with HLA-DR DRB1*0101 (human).
Experiment [23] has as its target HLA-DR DRB1*0405 (human). Description: competition assay, purified HLA, inhibition of 125I-labelled reference peptide.
In experiment [24] the target is HLA-DR DRB1*0404 (human). Described as above.
Experiment [25] has as its target HLA-DR DRB1*0301 (human). The experiment is described as above.
In experiment [26] the target is HLA-DR DRB1*0401 (human). The description is as above.
The target in experiment [27] is HLA-DR DRB1*0101 (human). The description is as above.
Experiment [28] addresses HLA-DR DRB1*1302 (human). The experiment is described as above.
In experiment [29] the target is purified HLA-DR DRB1*0301 (human). As to the kind of experiment: competition with 125I-labelled reference peptide, purified HLA.
Experiment [30] has as its target purified HLA-DR DRB1*0405 (human). The description is as above.
Experiment [31] has as its target purified HLA-DR DRB1*0101 (human). Described as above.
Experiment [32] has as its target purified HLA-DR DRB1*1302 (human). The description is as above.
For experiment [33], the target named is purified HLA-DR DRB1*0401 (human). Described as above.
Experiment [34] concerns the target purified HLA-DR DRB1*0404 (human). The description is as above.
Experiment [35] has as its target HLA-DR DRB1*1302 (human). As to the kind of experiment: competition with 125I-labelled peptide, purified HLA.
The target of experiment [36] is HLA-DR DRB1*0301 (human). Description: competition with 125I-labelled reference peptide on purified HLA-DR.
The target in experiment [37] is HLA-DR DRB1*0101 (human). Description: competition vs 125I-labeled peptide, purified HLA.

B1: Flu.HA.529 peptide … (peptide)
peptide: IYQILSIYSTVASSLA
modifications: not checked
Take B1: the half-inhibitory concentration (IC50) in [1] was found to be 13 nM; in experiment [2] it was 55 nM; in experiment [3], 18 nM; in experiment [4], 89 nM; in experiment [5], 4.7 nM.

B2: Flu.NA.21 peptide … (peptide)
peptide: SLMLQIGNMISIWVSHS
modifications: not checked
For the molecule B2, the IC50 with HLA-DR DRB1*1501 (human) [6] was 34 nM; in the experiment with HLA-DR DRB4*0101 (human) [7] it was 746 nM; with HLA-DR DRB1*0401 (human) [8], 480 nM; with HLA-DR DRB1*0101 (human) [9], 36 nM; in the experiment with HLA-DR DRB1*1302 (human) [10], 44 nM; in experiment [1], 44 nM. Further, the IC50 in [2] is 36 nM; in [3], 746 nM; in experiment [4] it was 480 nM; in experiment [5], 34 nM.

B3: Flu.NP.43 (peptide)
peptide: YIQMCTELKLSDYEG
modifications: not checked
In the case of B3, the IC50 worked out at 594 nM with HLA-DR DRB1*1501 (human) [11]; 2690 nM with HLA-DR DRB1*0405 (human) [12]; 1640 nM with HLA-DR DRB1*0404 (human) [13]; 368 nM with HLA-DR DRB1*0301 (human) [14]; 5840 nM with HLA-DR DRB1*1101 (human); 392 nM with HLA-DR DRB1*0401 (human) [15]. Besides, the concentration for half-maximal inhibition (IC50) turned out to be 320 nM with HLA-DR DRB1*0101 (human) [16] and 5370 nM with HLA-DR DRB1*0701 (human).

B4: Flu.HA.444 (peptide)
peptide: LLVLMENERTLDFHD
modifications: not checked
Turning to B4, the IC50 with HLA-DR DRB1*0301 (human) [17] was 64 nM. That is a double-digit nanomolar value.

B5: Flu.HA.11 (peptide)
peptide: VSLVKSDQICIGYHA
modifications: not checked
For B5, the half-inhibitory concentration (IC50) with HLA-DR DRB1*1501 (human) [18] is 14500 nM; with HLA-DR DRB4*0101 (human) [19], 32 nM; in the experiment with HLA-DR DRB1*0301 (human) [17], 511 nM; in the experiment with HLA-DR DRB1*0401 (human) [20], 513 nM; with HLA-DR DRB1*1302 (human) [21], 175 nM; in the experiment with HLA-DR DRB1*0101 (human) [22] it was greater than 10000 nM.

B6: Flu.NP.238 (peptide)
peptide: QKAMMDQVRESRNPG
modifications: not checked
With B6, the IC50 amounted to 13100 nM with HLA-DR DRB1*0405 (human) [23]; 1830 nM with HLA-DR DRB1*0404 (human) [24]; 450 nM in the experiment with HLA-DR DRB1*0301 (human) [25]; 856 nM in the experiment with HLA-DR DRB1*0401 (human) [26]; 17600 nM with HLA-DR DRB1*0101 (human) [27]; 10500 nM in the experiment with HLA-DR DRB1*1302 (human) [28].

B7: Flu.PB2.496 (peptide)
peptide: RVVVSIDRFLRVRDQ
modifications: not checked
With B7, the IC50 was determined as 67 nM in experiment [29]; 2050 nM in experiment [30]; 1860 nM in [31]; 8.1 nM in experiment [32]; 111 nM in experiment [33]; 400 nM in experiment [34].

B8: Flu.PA.694 (peptide)
peptide: EECLINDPWVLLNAS
modifications: not checked
Regarding B8, the IC50 in the experiment with HLA-DR DRB1*0405 (human) [12] was 15000 nM; with HLA-DR DRB1*0404 (human) [13], 183 nM; with HLA-DR DRB1*0301 (human) [14], 618 nM; with HLA-DR DRB1*0401 (human) [15], 1220 nM; with HLA-DR DRB1*0101 (human) [16], 34 nM; in the experiment with HLA-DR DRB1*1302 (human) [35], 246 nM.

B9: Flu.HA.532 peptide … (peptide)
peptide: ILSIYSTVASSLALAI
modifications: not checked
B9: the IC50 in [1] worked out at 7.6 nM; in [2], 11 nM; in experiment [3] it was 824 nM; in experiment [4], 91 nM; in experiment [5], 20 nM.

B10: Flu.PA.658 (peptide)
peptide: LEGFSAESRKLLLVV
modifications: not checked
In the case of B10, the 50% inhibitory concentration (IC50) stood at 3860 nM with HLA-DR DRB1*0405 (human) [12]; 1150 nM in the experiment with HLA-DR DRB1*0404 (human) [13]; 661 nM with HLA-DR DRB1*0301 (human) [14]; 861 nM with HLA-DR DRB1*0401 (human) [15]; 12 nM with HLA-DR DRB1*0101 (human) [16]; 2270 nM with HLA-DR DRB1*1302 (human) [35].

B11: Flu.NA.77 peptide … (peptide)
peptide: WAVYSKDNSIRIGSK
modifications: not checked
As to B11, the IC50 in the experiment with HLA-DR DRB1*1501 (human) [6] was 642 nM; with HLA-DR DRB4*0101 (human) [7], 19500 nM; with HLA-DR DRB1*0301 (human) [36], 291 nM; with HLA-DR DRB1*0401 (human) [8], 1600 nM; with HLA-DR DRB1*0101 (human) [9] it was 5400 nM; in the experiment with HLA-DR DRB1*1302 (human) [10] it was 36 nM.

B12: Flu.NP.488 (peptide)
peptide: GSYFFGDNAEEYDN
modifications: not checked
Consider B12, for which the half-inhibitory concentration (IC50) with HLA-DR DRB1*0405 (human) [23] was 65 nM; in the experiment with HLA-DR DRB1*0404 (human) [24], greater than 10000 nM; in the experiment with HLA-DR DRB1*0301 (human) [25], 139 nM; with HLA-DR DRB1*0401 (human) [26], 1950 nM; with HLA-DR DRB1*0101 (human) [27], greater than 10000 nM; with HLA-DR DRB1*1302 (human) [28] it was greater than 10000 nM.

B13: Flu.HA.318 (peptide)
peptide: CPKYVKSNRLVLATGL
modifications: not checked
Regarding B13, the IC50 stood at 230 nM in the experiment with HLA-DR DRB1*1501 (human) [18]; 287 nM with HLA-DR DRB4*0101 (human) [19]; 2920 nM with HLA-DR DRB1*0301 (human) [17]; 868 nM with HLA-DR DRB1*0401 (human) [20]; 2760 nM in the experiment with HLA-DR DRB1*0101 (human) [37]; 48 nM in the experiment with HLA-DR DRB1*1302 (human) [21].

B14: Flu.PB2.404 (peptide)
peptide: AMVFSQEDCMIKAVR
modifications: not checked
On to B14, for which the IC50 in experiment [29] is 718 nM; in experiment [30] it was 6780 nM; in experiment [31] it was 11000 nM; in experiment [32], 9200 nM; in [33] it was 3280 nM; in [34], 336 nM.

B15: Flu.PB2.697 (peptide)
peptide: FLILGKEDRRYGPAL
modifications: not checked
B15: the concentration for half-maximal inhibition (IC50) in [29] was 565 nM; in [31] it was 8390 nM; in experiment [32], 118 nM; in experiment [33] it was 1740 nM.

B16: Flu.NP.111 (peptide)
peptide: LILYDKEEIRRIWRQ
modifications: not checked
On to B16, for which the half-maximal inhibitory concentration (IC50) with HLA-DR DRB1*0405 (human) [23] is 7500 nM; with HLA-DR DRB1*0404 (human) [24] it was 262 nM; with HLA-DR DRB1*0301 (human) [25], 22 nM; with HLA-DR DRB1*0401 (human) [26], 12400 nM; with HLA-DR DRB1*0101 (human) [27], 7180 nM; in the experiment with HLA-DR DRB1*1302 (human) [28], 3100 nM.

B17: Flu.PB2.483 (peptide)
peptide: VSKMGVDEYSSTERV
modifications: not checked
For B17, the figures for the half-inhibitory concentration (IC50) in experiment [29] and in [32] were 1020 nM and 1850 nM, respectively.

B18: Flu.NS1.68 (peptide)
peptide: VERILKEESDEALKM
modifications: not checked
For B18, the half-maximal inhibitory concentration (IC50) with HLA-DR DRB1*0405 (human) [23] is greater than 10000 nM; in the experiment with HLA-DR DRB1*0404 (human) [24], 572 nM; in the experiment with HLA-DR DRB1*0401 (human) [26], 679 nM; in the experiment with HLA-DR DRB1*0101 (human) [27], 5190 nM; with HLA-DR DRB1*1302 (human) [28], 5060 nM.
